Reference: article doi:10.1101/2021.12.25.474155
Read-outs that look alike come from different tables or passages of the source.

Key:
NCAP [1] = target: T1, NCAP (SARS-CoV-2, UniProt P0DTC9); experiment: EMSA
NCAP [2] = target: T1, NCAP; experiment: EMSA; remark: listed apart in the source
NCAP [3] = target: T1, NCAP; experiment: competition
DD-C [4] = target: T2, DD-C (SARS-CoV-2, UniProt P0DTC9); experiment: EMSA
N-RBD [5] = target: T3, N-RBD (SARS-CoV-2, UniProt P0DTC9); experiment: EMSA
LCD [6] = target: T4, LCD (SARS-CoV-2, UniProt P0DTC9); experiment: EMSA
DD-C [7] = target: T2, DD-C; experiment: EMSA; remark: listed apart in the source
LCD [8] = target: T4, LCD; experiment: EMSA; remark: listed apart in the source
N-RBD [9] = target: T3, N-RBD; experiment: EMSA; remark: listed apart in the source
NCAP [10] = target: T1, NCAP; experiment: competition; remark: listed apart in the source
NCAP [11] = target: T1, NCAP; experiment: EMSA; remark: listed apart in the source
NCAP [12] = target: T1, NCAP; experiment: EMSA; remark: listed apart in the source

B1: F294 (structured_RNA)
RNA: GGAUUAAAGGUUUAUACCUUCCCAGGUAACAAACCAACCAACUUUCGAUCUCUUGUAGAUCUGUUCUCUAAACGAACUUUAAAAUCUGUGUGGCUGUCACUCGGCUGCAUGCUUAGUGCACUCACGCAGUAUAAUUAAUAACUAAUUACUGUCGUUGACAGGACACGAGUAACUCGUCUAUCUUCUGCAGGCUGCUUACGGUUUCGUCCGUGUUGCAGCCGAUCAUCAGCACAUCUAGGUUUCGUCCGGGUGUGACCGAAAGGUAAGAUGGAGAGCCUUGUCCCUGGUUUCAACGA
B1 gave a Kd (NCAP [1]) of 26 ± 10 nM.

B2: SL5 (structured_RNA)
RNA: GGUCGUUGACAGGACACGAGUAACUCGUCUAUCUUCUGCAGGCUGCUUACGGUUUCGUCCGUGUUGCAGCCGAUCAUCAGCACAUCUAGGUUUCGUCCGGGUGUGACCGAAAGGUAAGAUGGAGAGCCUUGUCCCUGGUUUCAACGA
For B2, the Kd (NCAP [2]) was 1250 ± 130 nM and the Kd (NCAP [1]) was 166 ± 36 nM.

B3: siDGCR8-1 duplex (dsRNA)
RNA 1: CAUCGGACAAGAGUGUGAUUU
RNA 2: AUCACACUCUUGUCCGAUGUU
modifications: 5'-phosphate on both strands
B3: binds (NCAP [3]).

In the case of UAUAAUUAAUAACUAAUUACUG (ssRNA) [S2], the Kd (NCAP [1]) is reported as 216 ± 23 nM, the binding result (DD-C [4]) is reported as “no binding” and the binding result (N-RBD [5]) is reported as “no binding”. UAUAAUUAAUAACUAAUUACUG (ssRNA) [S2]: no binding (LCD [6]).

B4: F257 (structured_RNA)
RNA: GGUCGUUGACAGGACACGAGUAACUCGUCUAUCUUCUGCAGGCUGCUUACGGUUUCGUCCGUGUUGCAGCCGAUCAUCAGCACAUCUAGGUUUCGUCCGGGUGUGACCGAAAGGUAAGAUGGAGAGCCUUGUCCCUGGUUUCAACGAGAAAACACACGUCCAACUCAGUUUGCCUGUUUUACAGGUUCGCGACGUGCUCGUACGUGGCUUUGGAGACUCCGUGGAGGAGGUCUUAUCAGAGGCACGUCAACAUCUUAAA
Work on B4 yielded a Kd (NCAP [1]) of 23 ± 5 nM.

B5: S2hp (structured_RNA)
RNA: GGCUGUGUGGCUGUCACUCGGCUGCAUGCUUAGUGCACUCACGCAGUAUAAUUAAUAACUAAUUACUGUCGUUGACAGGACACGAGUAACUCGUCUAUCUUCUGCAGGCUGCUUACGGUUUCGUCCGUGUUGCAGCCGAUCAUCAGCACAUCUAGGUUUCGUCCGGGUGUGACCGAAAGGUAAGAUGGAGAGCCUUGUCCCUGGUUUCAACGA
B5 gave a Kd (DD-C [7]) of ~707 nM, a Kd (NCAP [2]) of 312 ± 39 nM and a Kd (LCD [8]) of ~1410 nM. For the same binder, the Kd (NCAP [1]) was 173 ± 14 nM and the Kd (N-RBD [9]) was ~354 nM.

AUCACACUCUUGUCCGAUGUU (ssRNA, 5'-phosphate) [siDGCR8-1 antisense]: no binding (NCAP [3]).

B6: S1.5hp (structured_RNA)
RNA: GGAUCUCUUGUAGAUCUGUUCUCUAAACGAACUUUAAAAUCUGUGUGGCUGUCACUCGGCUGCAUGCUUAGUGCACUCACGCAG
B6: binds (NCAP [10]).

For GGCUGUGUGGCUGUCACUCGGCUGCAUGCUUAGUGCACUCACGCAG (structured_RNA) [SL4], the Kd (NCAP [11]) was 4800 ± 200 nM and the Kd (NCAP [12]) was 356 ± 43 nM.

In the case of GGCUGUGUGGCUGUCACUCGGCUGCAUGCUUAGUGCACUCACGCAG (structured_RNA) [SL4 hairpin], the Kd (NCAP [2]) is reported as 8600 ± 1000 nM and the Kd (NCAP [1]) is reported as 569 ± 67 nM.

B7: F127 (structured_RNA)
RNA: GGAUUAAAGGUUUAUACCUUCCCAGGUAACAAACCAACCAACUUUCGAUCUCUUGUAGAUCUGUUCUCUAAACGAACUUUAAAAUCUGUGUGGCUGUCACUCGGCUGCAUGCUUAGUGCACUCACGCAG
B7 showed a Kd (NCAP [1]) of 183 ± 56 nM.

B8: Tet3-9 (structured_RNA)
RNA: GGACCGUCAAAUUGCGGGAAAGGGGUCAACAGCCGUUCAGUACCAAGUCUCAGGGGAAACUUUGAGAUGGCCUUGCAAAGGGUAUGGUAAUAAGCUGACGGACAUGGUCCUAACCACGCAGCCAAGUCCUAAGUCAACAGGAGACUGUUGAUAUGGAUGCAGUUCACAGACUAAAUGUCGGUCGGGGAAGAUGUAUUCUUCUCAUAAGAUAUAGUCGGACCUCUCCCGAAAGGGAGUUGGAGUACUCGAAAUUCGUUUGGAGGGCUGCAGGGCCCUCUAGA
B8: binds (NCAP [3]).

B9: S1hp (structured_RNA)
RNA: GGUUUAUACCUUCCCAGGUAACAAACCAACCAACUUUCGAUCUCUUGUAGAUC
B9: binds (NCAP [10]).

B10: S8hp (structured_RNA)
RNA: GGAAGGAGCUGGUGGCCAUAGUUACGGCGCCGAUCUAAAGUCAUUUGACUUAGGCGACGAGCUUGGCACUGAUCCUUAUGAAGAUUUUCAAGAAAACUGGAACACUAAACAUAGCAGUGGUGUUACCCGUGAACUCAUGCGUGAGCUUAACGGAGGGGCAUACACUCGCUAUGU
B10: binds (NCAP [3]).
